{"source": "patent US20060246067A1", "data": [{"molecular_target": "T cell Receptor (TcR) on human peripheral blood T lymphocytes", "assay": "cell-based or functional assay", "units": {"P50% (human PBL proliferation, 3H thymidine incorporation)": "ng/mL", "Reduction (fold, against SMEZ-2 wild type)": "fold"}, "values": [{"substance": "SMEZ-2 W75L.D42C.K182Q (M1)", "P50% (human PBL proliferation, 3H thymidine incorporation)": "> 10", "Reduction (fold, against SMEZ-2 wild type)": "> 100000"}, {"substance": "SMEZ-2 W75L", "P50% (human PBL proliferation, 3H thymidine incorporation)": "> 10", "Reduction (fold, against SMEZ-2 wild type)": "> 100000"}, {"substance": "SMEZ-2 W75L.D42C.K182Q.Y18A. (M2)", "P50% (human PBL proliferation, 3H thymidine incorporation)": "> 10", "Reduction (fold, against SMEZ-2 wild type)": "> 100000"}, {"substance": "SMEZ-2 D42C", "P50% (human PBL proliferation, 3H thymidine incorporation)": 10, "Reduction (fold, against SMEZ-2 wild type)": 10000}, {"substance": "SMEZ-2 Y18A", "P50% (human PBL proliferation, 3H thymidine incorporation)": "> 10", "Reduction (fold, against SMEZ-2 wild type)": "> 100000"}]}]}
